Results published in patent US20110182905A1.

Target: purified hGM-CSF (Biomol #2514, expressed in E. coli) (human) (UniProt P04141)
Assay: cell-based or functional assay

Chain of purified hGM-CSF (Biomol #2514, expressed in E. coli) (human) (P04141 18-144 limits assumed): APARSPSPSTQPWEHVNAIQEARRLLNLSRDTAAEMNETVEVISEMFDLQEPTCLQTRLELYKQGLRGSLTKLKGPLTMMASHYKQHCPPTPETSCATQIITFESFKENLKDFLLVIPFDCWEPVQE

TF-1 assay hGM-CSF (E. coli) [pM], GM-CSF final concentration 1.0 ng/ml: 8260 pM
Substance: rat-anti-human-GM-CSF IgG2a BVD2-21C11 (BD #554503) (antibody)
